The record followed here is US20240287161A1 (NATIONAL UNIVERSITY CORPORATION TOTTORI UNIVERSITY, published 2024).

For assay [1], the target named is T1, HCoV-OC43 trimeric S protein (amino acids 12-1299) with T4 foldon, histidine tag and strep-tag (HCoV-OC43, UniProt P36334 12-1291).
T1 chain: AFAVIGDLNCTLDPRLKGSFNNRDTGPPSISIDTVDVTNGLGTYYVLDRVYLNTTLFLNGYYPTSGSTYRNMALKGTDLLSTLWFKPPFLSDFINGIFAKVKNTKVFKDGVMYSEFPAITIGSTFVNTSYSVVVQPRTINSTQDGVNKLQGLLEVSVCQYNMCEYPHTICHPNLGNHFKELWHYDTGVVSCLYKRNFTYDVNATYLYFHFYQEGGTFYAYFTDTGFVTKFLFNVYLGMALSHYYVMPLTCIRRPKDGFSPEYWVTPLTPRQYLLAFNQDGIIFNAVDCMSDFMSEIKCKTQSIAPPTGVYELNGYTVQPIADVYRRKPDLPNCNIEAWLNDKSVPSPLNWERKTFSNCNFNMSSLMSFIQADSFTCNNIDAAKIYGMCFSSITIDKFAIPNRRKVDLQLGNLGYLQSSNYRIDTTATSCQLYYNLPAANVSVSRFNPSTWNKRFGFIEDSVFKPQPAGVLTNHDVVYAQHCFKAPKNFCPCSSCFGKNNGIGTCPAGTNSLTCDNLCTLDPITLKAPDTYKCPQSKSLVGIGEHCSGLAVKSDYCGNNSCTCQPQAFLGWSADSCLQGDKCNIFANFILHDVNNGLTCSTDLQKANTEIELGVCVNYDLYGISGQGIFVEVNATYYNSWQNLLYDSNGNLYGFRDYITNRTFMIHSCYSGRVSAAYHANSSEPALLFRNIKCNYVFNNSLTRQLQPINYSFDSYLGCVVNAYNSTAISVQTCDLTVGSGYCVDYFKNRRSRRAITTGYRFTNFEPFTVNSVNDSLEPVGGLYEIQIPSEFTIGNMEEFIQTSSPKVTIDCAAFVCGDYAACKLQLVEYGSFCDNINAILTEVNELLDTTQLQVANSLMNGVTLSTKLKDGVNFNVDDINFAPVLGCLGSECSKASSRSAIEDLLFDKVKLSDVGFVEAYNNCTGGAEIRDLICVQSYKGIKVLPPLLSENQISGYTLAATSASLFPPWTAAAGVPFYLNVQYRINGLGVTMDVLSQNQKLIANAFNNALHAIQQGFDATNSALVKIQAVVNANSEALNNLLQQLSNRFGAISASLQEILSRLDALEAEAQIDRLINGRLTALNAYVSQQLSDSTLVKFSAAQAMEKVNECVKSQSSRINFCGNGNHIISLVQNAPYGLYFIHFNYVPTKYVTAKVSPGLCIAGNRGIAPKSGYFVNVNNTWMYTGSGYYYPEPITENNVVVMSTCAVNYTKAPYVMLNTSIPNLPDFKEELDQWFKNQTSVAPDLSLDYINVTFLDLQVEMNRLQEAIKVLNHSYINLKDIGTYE
In words: ELISA on coated S-trimeric antigen, anti-human IgG-HRP [Human IgG1, NT-108]. Background: ELISA stands for enzyme-linked immunosorbent assay.

The target of assay [2] is T2, HCoV-229E trimeric S protein (amino acids 12-1109) with T4 foldon, histidine tag and strep-tag (HCoV-229E, UniProt P15423 12-1112).
T2 chain: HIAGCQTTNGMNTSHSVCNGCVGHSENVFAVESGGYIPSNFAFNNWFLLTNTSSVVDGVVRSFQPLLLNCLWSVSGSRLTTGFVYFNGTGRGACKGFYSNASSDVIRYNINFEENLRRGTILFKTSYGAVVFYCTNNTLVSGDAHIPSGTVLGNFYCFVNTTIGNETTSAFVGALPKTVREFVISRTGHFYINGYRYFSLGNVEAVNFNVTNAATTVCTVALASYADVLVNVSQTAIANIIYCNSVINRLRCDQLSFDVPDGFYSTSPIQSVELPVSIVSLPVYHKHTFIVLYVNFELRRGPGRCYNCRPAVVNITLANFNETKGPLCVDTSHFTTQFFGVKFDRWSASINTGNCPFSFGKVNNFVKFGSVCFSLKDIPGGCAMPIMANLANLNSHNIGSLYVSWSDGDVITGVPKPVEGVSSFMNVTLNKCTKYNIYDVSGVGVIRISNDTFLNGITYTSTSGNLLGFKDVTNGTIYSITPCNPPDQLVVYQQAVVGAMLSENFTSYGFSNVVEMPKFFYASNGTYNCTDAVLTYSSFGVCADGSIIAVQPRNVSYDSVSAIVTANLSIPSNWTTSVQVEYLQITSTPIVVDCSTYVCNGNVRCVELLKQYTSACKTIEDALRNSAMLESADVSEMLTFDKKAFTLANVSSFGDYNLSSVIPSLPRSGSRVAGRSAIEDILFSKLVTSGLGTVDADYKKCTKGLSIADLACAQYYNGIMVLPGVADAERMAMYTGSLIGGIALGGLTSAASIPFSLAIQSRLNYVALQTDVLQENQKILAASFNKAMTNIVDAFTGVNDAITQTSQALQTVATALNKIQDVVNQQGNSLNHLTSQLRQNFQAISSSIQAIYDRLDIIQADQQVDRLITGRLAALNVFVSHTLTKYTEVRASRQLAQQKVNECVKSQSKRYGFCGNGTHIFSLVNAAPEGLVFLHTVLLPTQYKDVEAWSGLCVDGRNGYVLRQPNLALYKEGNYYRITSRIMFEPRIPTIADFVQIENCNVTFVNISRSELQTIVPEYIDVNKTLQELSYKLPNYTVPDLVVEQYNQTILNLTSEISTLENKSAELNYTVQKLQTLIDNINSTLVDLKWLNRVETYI
The description is as above.

B1: NT-108 (recombinant human IgG1/kappa antibody) (antibody, V domains shown)
VH: EVQLQQSGPGLVKPSQTLSLTCSISGDSVSSNSAAWNWIRQSPSRGLEWLGRTYYRSKWYNDYAGTVKSRIAINPDTSKNQFSLHLNSVTPEDTAVYFCARVISVAGYAFDIWGQGTMVTVSS
VL: EIVLTQSPGTLSLSPGERATLSCRASQSVSSTFLAWYQQKPGQAPRLLIYGASYMATGIPDRFSGSGSGTDFTLTISRLEPEDFAVYYCQQYGSSLTFGGGTKLEIK
On to B1, for which the binding result in assay [1] and in assay [2] was “no binding (tested: 1000 ng/ml)” throughout.
